According to publication doi:10.1101/2021.10.20.465124v1:

Substrate: COc1cc2ccc(=O)oc2cc1O[C@@H]1O[C@H](CO)[C@@H](O)[C@H](O)[C@H]1O
Experiment: glucose release, D-Glucose HK assay, substrate inhibition fit
Type: biochemical, Streptomyces scabiei
Conditions: HEPES 50 mM pH 7.5, 40 °C, 4 min, substrate inhibition model

B1: His6-BglC (Streptomyces scabiei 87.22) (protein)
chain: MPEPVNPATPVTFPPAFLWGAATSAYQIEGAVREDGRTPSIWDTFSHTPGKTAGGENGDIAVDHYHRYRDDVAMMADLGLNAYRFSVSWSRVQPTGRGPAVQKGLDFYRRLVDELLAKGIKPAVTLYHWDLPQELEDAGGWPERDIVHRFAEYARIMGEALGDRVEQWITLNEPWCTAFLGYGSGVHAPGRTDPVASLRAAHHLNVAHGLGVSALRSAMPARNSIAVSLNSSVVRPITSSPEDRAAARKIDDLANGVFHGPMLHGAYPETLFAATSSLTDWSFVRDGDVATAHQPLDALGLNYYTPALVGAADAGLEGPRADGHGASEHSPWPAADDVLFHQTPGERTEMGWTIDPTGLHELIMRYAREAPGLPMYVTENGAAYDDKMDADGRVHDPERIAYLHGHLRAVRRAIAEGADVRGYYLWSLMDNFEWAYGYGKRFGAVYVDYATLTRTPKSSAHWYGQAAKTGALPPLAPAPA
Protein B1 has a Km of 300 µM and a kcat of 9.4 s⁻¹.
